What all share (assay): two-hybrid; pairwise split-ubiquitin yeast two-hybrid of four baits (slToc159-1AGM, -1GM, -2AGM, -2GM) with isolated prey vectors in NMY51; qualitative PXG assay and quantitative β-galactosidase activity in 96-well plates, 60 min, mean of three experiments
Assay [1] addresses slToc159-2AGM bait protein (tomato (Solanum lycopersicum)).
The target in assay [2] is slToc159-1AGM bait protein (tomato (Solanum lycopersicum)).
Assay [3] concerns the target slToc159-1GM bait protein (tomato (Solanum lycopersicum)).
For assay [4], the target named is slToc159-2GM bait protein (tomato (Solanum lycopersicum)).

“thiamine biosynthesis protein (ThiC) (natural protein)”: in assay [1], the increase in interaction strength (β-galactosidase activity) against slToc159-2GM turned out to be 81.6%. Moreover, in assay [2], the relative increase in interaction strength (β-galactosidase activity) against slToc159-1GM was found to be 476%. As to “Hop-interacting protein (THI026) (natural protein)”, the increase in interaction strength (β-galactosidase activity) against slToc159-2GM in assay [1] was determined as 152%. Take “Stearoyl-[acyl-carrier-protein] 9-desaturase (natural protein)”: the increase in interaction strength (β-galactosidase activity) against slToc159-2GM in assay [1] came to 81.1%. Moreover, the relative increase in interaction strength (β-galactosidase activity) against slToc159-1GM in assay [2] worked out at 866%. For the substance “Chlorophyll a-b binding protein (CAB11) (natural protein)”, in assay [3], the decrease in interaction strength (β-galactosidase activity) against slToc159-1AGM came to 20.7%. As to “RuBisCO small subunit 1 (natural protein)”, the increase in interaction strength (β-galactosidase activity) against slToc159-2AGM in assay [4] was found to be 79.9%. For “Photosystem I subunit O (natural protein)”, the decrease in interaction strength (β-galactosidase activity) against slToc159-1AGM in assay [3] worked out at 93.8%. The substance also gave a decrease in affinity (β-galactosidase activity) against Toc159-2AGM in assay [4] of 72.7%. As for Glutamine synthetase (natural protein), the relative increase in interaction strength (β-galactosidase activity) against slToc159-1GM in assay [2] amounted to 28.8%.

Take “Chlorophyll a/b binding protein Cab-3C (natural protein)”: the decrease in interaction strength (β-galactosidase activity) against slToc159-1AGM in assay [3] is 38.4%. Besides, the increase in interaction strength (β-galactosidase activity) against slToc159-2AGM in assay [4] was found to be 1360%. In turn, “Photosystem II 23 kDa protein (natural protein)” displayed a decrease in interaction strength (β-galactosidase activity) against slToc159-1AGM in assay [3] of 88.7%. The same substance showed a decrease in affinity (β-galactosidase activity) against Toc159-2AGM in assay [4] of 89.2%. Turning to “3-oxoacyl-[acyl-carrier-protein] reductase (natural protein)”, the increase in interaction strength (β-galactosidase activity) against slToc159-2GM in assay [1] came out at 61.7%. For the substance “Photosystem I reaction center subunit II (natural protein)”, in assay [3], the decrease in interaction strength (β-galactosidase activity) against slToc159-1AGM turned out to be 62%. Besides, the increase in interaction strength (β-galactosidase activity) against slToc159-2AGM in assay [4] amounted to 57.8%. For “Heat shock cognate 70 kDa protein (natural protein)”, in assay [1], the increase in interaction strength (β-galactosidase activity) against slToc159-2GM was determined as 406%.

With “Serine hydroxymethyl transferase (natural protein)”, in assay [1], the increase in interaction strength (β-galactosidase activity) against slToc159-2GM came out at 889%. Regarding SufE-like protein 1 (natural protein), the increase in interaction strength (β-galactosidase activity) against slToc159-2GM in assay [1] is 509%. Consider “Chlorophyll a-b binding protein 7 (natural protein)”, for which, in assay [3], the decrease in interaction strength (β-galactosidase activity) against slToc159-1AGM is 65.4%. In addition, the increase in interaction strength (β-galactosidase activity) against slToc159-2AGM in assay [4] is 21.7%. Substance “Chlorophyll a-b binding protein 8 (natural protein)” registered a decrease in interaction strength (β-galactosidase activity) against slToc159-1AGM in assay [3] of 49.2%. With “Cell division protein FtsZ (natural protein)”, the relative increase in interaction strength (β-galactosidase activity) against slToc159-1GM in assay [2] was 66.1%.

In the case of “Chlorophyll a-b binding protein CP24 (natural protein)”, the decrease in affinity (β-galactosidase activity) against Toc159-2AGM in assay [4] amounted to 75.5%.

In assay [3], “RuBisCO small subunit 3 (natural protein)” came in with a decrease in interaction strength (β-galactosidase activity) against slToc159-1AGM of 24.5%. In assay [4], this substance displayed a decrease in affinity (β-galactosidase activity) against Toc159-2AGM of 37.1%.

Regarding “Photosystem I reaction center subunit IV A (natural protein)”, the decrease in affinity (β-galactosidase activity) against Toc159-2AGM in assay [4] was determined as 53.7%. Regarding “Photosystem I reaction center subunit III (natural protein)”, the decrease in interaction strength (β-galactosidase activity) against slToc159-1AGM in assay [3] was determined as 46.3%. In assay [4], this substance had a decrease in affinity (β-galactosidase activity) against Toc159-2AGM of 86%. With “RuBisCO small subunit 2A (natural protein)”, the decrease in interaction strength (β-galactosidase activity) against slToc159-1AGM in assay [3] came to 62.4%. The increase in interaction strength (β-galactosidase activity) against slToc159-2AGM in assay [4] amounted to 615%. In assay [3], “photosystem II subunit S (natural protein)” showed a decrease in interaction strength (β-galactosidase activity) against slToc159-1AGM of 76.6%.

(Values after article PMC9654457.)
